For data set [1], the target named is T1, SAMHD1 HD domain WT (UniProt Q9Y3Z3 114-626). As to the kind of experiment: fluorescence anisotropy; FA: 50 mM Tris pH 8, 100 mM NaCl, 5 mM MgCl2, 1 mM TCEP, 50 nM 6FAM-oligo (salt series with KCl 50-150 mM); SEC same buffer; NMR: 50 mM Tris pH 7.5, 150 mM NaCl, 5 mM MgCl2, 10% D2O; temperature not stated. The conditions noted are these: protein: recombinant; chain copies: 2; label: 5'-6FAM; single strand. For orientation: Fluorescence polarisation rises when a labelled molecule tumbles more slowly, as on binding a larger partner.

Data set [2] addresses T1, SAMHD1 HD domain WT. Briefly: X-ray crystallography; FA: 50 mM Tris pH 8, 100 mM NaCl, 5 mM MgCl2, 1 mM TCEP, 50 nM 6FAM-oligo (salt series with KCl 50-150 mM); SEC same buffer; NMR: 50 mM Tris pH 7.5, 150 mM NaCl, 5 mM MgCl2, 10% D2O; temperature not stated. The conditions noted are these: protein: recombinant; chain copies: 2; single strand.
Data set [3] deals with T1, SAMHD1 HD domain WT. As to the kind of experiment: fluorescence anisotropy; tolerant to increasing salt (from 50 mM KCl); FA: 50 mM Tris pH 8, 100 mM NaCl, 5 mM MgCl2, 1 mM TCEP, 50 nM 6FAM-oligo (salt series with KCl 50-150 mM); SEC same buffer; NMR: 50 mM Tris pH 7.5, 150 mM NaCl, 5 mM MgCl2, 10% D2O; temperature not stated. Conditions: protein: recombinant; chain copies: 2; label: 5'-6FAM; single strand.

Data set [4] deals with T1, SAMHD1 HD domain WT. Briefly: fluorescence anisotropy; no significant difference from d(TG*TTCA); FA: 50 mM Tris pH 8, 100 mM NaCl, 5 mM MgCl2, 1 mM TCEP, 50 nM 6FAM-oligo (salt series with KCl 50-150 mM); SEC same buffer; NMR: 50 mM Tris pH 7.5, 150 mM NaCl, 5 mM MgCl2, 10% D2O; temperature not stated. Conditions: protein: recombinant; chain copies: 2; label: 5'-6FAM; single strand.

The target of data set [5] is T1, SAMHD1 HD domain WT. As to the kind of experiment: fluorescence anisotropy; FA: 50 mM Tris pH 8, 100 mM NaCl, 5 mM MgCl2, 1 mM TCEP, 50 nM 6FAM-oligo (salt series with KCl 50-150 mM); SEC same buffer; NMR: 50 mM Tris pH 7.5, 150 mM NaCl, 5 mM MgCl2, 10% D2O; temperature not stated. Conditions: protein: recombinant; chain copies: 2; label: 5'-6FAM; single strand. The source holds these as a separate data set.

The target in a further data set is SAMHD1 D311A (UniProt Q9Y3Z3 114-626, D311A). As to the kind of experiment: analytical ultracentrifugation; no nucleotides; dimer, S ~6; FA: 50 mM Tris pH 8, 100 mM NaCl, 5 mM MgCl2, 1 mM TCEP, 50 nM 6FAM-oligo (salt series with KCl 50-150 mM); SEC same buffer; NMR: 50 mM Tris pH 7.5, 150 mM NaCl, 5 mM MgCl2, 10% D2O; temperature not stated. The conditions noted are these: protein: recombinant; chain copies: 2; label: 5'-6FAM; single strand.

The target in the next data set is SAMHD1 R352A (UniProt Q9Y3Z3 114-626, R352A). Briefly: size-exclusion chromatography; 50 uM GTP + 50 uM dTTP; 2-fold higher stoichiometry than D311A; FA: 50 mM Tris pH 8, 100 mM NaCl, 5 mM MgCl2, 1 mM TCEP, 50 nM 6FAM-oligo (salt series with KCl 50-150 mM); SEC same buffer; NMR: 50 mM Tris pH 7.5, 150 mM NaCl, 5 mM MgCl2, 10% D2O; temperature not stated. The conditions noted are these: protein: recombinant; chain copies: 2; label: 5'-6FAM; single strand. (In gel filtration, larger molecules generally elute earlier.)

Another data set deals with SAMHD1 K523A (UniProt Q9Y3Z3 114-626, K523A). Described as above. Conditions: protein: recombinant; chain copies: 2; label: 5'-6FAM; single strand.
SAMHD1 K523A, sequence (Q9Y3Z3 114-626 K523A): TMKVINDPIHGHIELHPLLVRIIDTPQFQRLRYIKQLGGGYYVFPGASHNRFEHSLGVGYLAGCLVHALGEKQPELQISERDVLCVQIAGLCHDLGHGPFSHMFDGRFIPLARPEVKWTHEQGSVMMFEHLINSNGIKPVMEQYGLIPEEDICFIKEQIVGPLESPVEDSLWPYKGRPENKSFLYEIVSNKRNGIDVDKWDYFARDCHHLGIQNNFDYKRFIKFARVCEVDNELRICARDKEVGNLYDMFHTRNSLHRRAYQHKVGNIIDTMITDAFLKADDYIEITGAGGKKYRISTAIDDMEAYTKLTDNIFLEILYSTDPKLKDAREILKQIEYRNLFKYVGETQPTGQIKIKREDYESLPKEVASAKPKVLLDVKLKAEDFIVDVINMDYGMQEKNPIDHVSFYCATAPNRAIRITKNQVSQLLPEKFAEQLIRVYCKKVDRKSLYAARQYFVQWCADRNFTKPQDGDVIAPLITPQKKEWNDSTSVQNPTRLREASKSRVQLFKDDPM

T1 sequence (Q9Y3Z3 114-626): as the sequence (Q9Y3Z3 114-626 K523A) above, with A410K counted along it
SAMHD1 D311A, sequence (Q9Y3Z3 114-626 D311A): as the sequence (Q9Y3Z3 114-626 K523A) above, with D198A, A410K counted along it
SAMHD1 R352A, sequence (Q9Y3Z3 114-626 R352A): as the sequence (Q9Y3Z3 114-626 K523A) above, with R239A, A410K counted along it

As to CTCCT (ssDNA, phosphorothioate?) [6FAM oligo with G replaced by T], the binding result in the data set with SAMHD1 HD domain WT [1] was “no binding”.
CGCCU (ssRNA) [r(CGCCU)]: the binding result with SAMHD1 HD domain WT [2] is reported as “binds”.
On to CGCCU (ssRNA, phosphorothioate at linkages 1-4, mixed Rp/Sp) [6FAM-r(C*G*C*C*U)], for which the binding result with SAMHD1 HD domain WT [3] was “binds”.
In the case of CGCCT (ssDNA, phosphorothioate at linkages 1-4, mixed Rp/Sp) [d(C*G*C*C*T)], in the data set with SAMHD1 HD domain WT [2], the binding result is reported as “binds”.
With UGUUCA (ssRNA, phosphorothioate after G2, mixed Rp/Sp) [6FAM-r(UG*UUCA)], the binding result with SAMHD1 HD domain WT [4] is “binds”.
For CACCT (ssDNA, phosphorothioate?) [6FAM oligo with G replaced by A], the binding result in the data set with SAMHD1 HD domain WT [1] was “no binding”.
For TGTTCA (ssDNA, phosphorothioate after G2, pure Rp) [6FAM-d(TG*TTCA) Rp], the binding signal with SAMHD1 HD domain WT [5] was ~10 fold higher affinity than Sp.
With TGTTCA (ssDNA, phosphorothioate after G2, pure Sp) [6FAM-d(TG*TTCA) Sp], the binding signal in the data set with SAMHD1 HD domain WT [5] is ~0.1 affinity relative to Rp.
For the molecule CGCCT (ssDNA, phosphorothioate at linkages 1-4, mixed Rp/Sp) [6FAM-d(C*G*C*C*T)], the binding result in the data set with SAMHD1 D311A, in the data set with SAMHD1 R352A, with SAMHD1 K523A and with SAMHD1 HD domain WT [3] was “binds” each time.

These data come from PMC7854603, “Nucleic acid binding by SAMHD1 contributes to the antiretroviral activity and is enhanced by the GpsN modification”.
